According to patent US20260184794A1, “ANTIBODIES AGAINST INTEGRIN ALPHA 11 BETA 1 AND USES THEREOF” (Momenta Pharmaceuticals, Inc., priority 2022, published 2026):
Numbering of substitutions follows the chain as printed.

B1: A11BB133: 79E3E3 variant; VH SEQ ID NO: 4, VL SEQ ID NO: 21 (antibody, V domains shown)
VH: QIQLVQSGSELKKPGASVKVSCKASGYTFTDYAMNWVRQAPGQGLEWMGWINTQTGKPTYAQGFTGRFVFSLDTSVSTAYLQISSLKAEDTAVYYCTRLGTGNTKGFAYWGQGTLVTVSS
VL: DIQITQSPSSLSASVGDRVTITCKSSQSLLYSENNQDYLAWYQQKPGKVPKLLIYGASNRHTGVPSRFSGSGSGTDFTLTISSLQPEDVATYYCEQTYRYPFTFGQGTKLEIK
B2: A11BB138: 79E3E3 variant; VH SEQ ID NO: 12, VL SEQ ID NO: 21 (antibody, V domains shown)
VH: B1 VH with V20I, Y95F
VL: B1 VL
B3: A11BB140: 79E3E3 variant; VH SEQ ID NO: 7, VL SEQ ID NO: 22 (antibody, V domains shown)
VH: QIQLVQSGAEVKKPGSSVKVSCKASGYTFTDYAMNWVRQAPGQGLEWMGWINTQTGKPTYAQKFQGRVTFTLDESTSTTYMELSSLRSEDTAVYYCTRLGTGNTKGFAYWGQGTLVTVSS
VL: B1 VL with I4M
B4: A11BB143: 79E3E3 variant; VH SEQ ID NO: 15, VL SEQ ID NO: 22 (antibody, V domains shown)
VH: B3 VH with I2V, T79A
VL: B1 VL with I4M
B5: A11BB139: 79E3E3 variant; VH SEQ ID NO: 5, VL SEQ ID NO: 22 (antibody, V domains shown)
VH: B3 VH with T79A
VL: B1 VL with I4M
B6: A11BB131: 79E3E3 variant; VH SEQ ID NO: 11, VL SEQ ID NO: 21 (antibody, V domains shown)
VH: B1 VH with V20I, S77R, Y95F
VL: B1 VL
B7: A11BB142: 79E3E3 variant; VH SEQ ID NO: 6, VL SEQ ID NO: 22 (antibody, V domains shown)
VH: B3 VH with T97A
VL: B1 VL with I4M
B8: A11BB141: 79E3E3 variant; VH SEQ ID NO: 7, VL SEQ ID NO: 19 (antibody, V domains shown)
VH: B3 VH
VL: B1 VL
B9: A11BB136: 79E3E3 variant; VH SEQ ID NO: 14, VL SEQ ID NO: 22 (antibody, V domains shown)
VH: B1 VH with Y95F
VL: B1 VL with I4M
B10: A11BB134: 79E3E3 variant; VH SEQ ID NO: 10, VL SEQ ID NO: 22 (antibody, V domains shown)
VH: B1 VH with V20I, R38K, Y95F
VL: B1 VL with I4M
B11: A11BB112: 16E10 variant; VH SEQ ID NO: 49, VL SEQ ID NO: 61 (antibody, V domains shown)
VH: EVQLLESGGGLVQPGGSLRLSCAASGFSFSSSYYMCWVRQAPGKGLEWVSCIGTTRGSTYYADSVKGRFTISRDNSKNTLYLQMNSLRAEDTAVYYCARDATGYRINTIGLYFNLWGQGTLVTVSS
VL: DIVMTQSPDSLAVSLGERATINCQASQTIYSYLSWYQQKPGQPPKLLIYEASKLASGVPDRFSGSGSGTDYTLTISSLQAEDVAVYYCQSYHGTASTEYNTFGGGTKVEIK
B12: A11BB129: 16E10 variant; VH SEQ ID NO: 54, VL SEQ ID NO: 61 (antibody, V domains shown)
VH: B11 VH with C36S, C51A, L80V
VL: B11 VL
B13: A11BB121: 16E10 variant; VH SEQ ID NO: 53, VL SEQ ID NO: 61 (antibody, V domains shown)
VH: B11 VH with C36S, C51A
VL: B11 VL
B14: A11BB119: 16E10 variant; VH SEQ ID NO: 45, VL SEQ ID NO: 61 (antibody, V domains shown)
VH: B11 VH with C36A, C51A
VL: B11 VL
B15: A11BB123: 16E10 variant; VH SEQ ID NO: 47, VL SEQ ID NO: 61 (antibody, V domains shown)
VH: B11 VH with C36A, C51A, N75S
VL: B11 VL
B16: A11BB114: 16E10 variant; VH SEQ ID NO: 50, VL SEQ ID NO: 61 (antibody, V domains shown)
VH: B11 VH with L80V
VL: B11 VL
B17: A11BB127: 16E10 variant; VH SEQ ID NO: 46, VL SEQ ID NO: 61 (antibody, V domains shown)
VH: B11 VH with C36A, C51A, L80V
VL: B11 VL
B18: A11BB117: 16E10 variant; VH SEQ ID NO: 56, VL SEQ ID NO: 61 (antibody, V domains shown)
VH: B11 VH with C36S, C51A, N75S, L80V, Y96F
VL: B11 VL
B19: A11BB125: 16E10 variant; VH SEQ ID NO: 55, VL SEQ ID NO: 61 (antibody, V domains shown)
VH: B11 VH with C36S, C51A, N75S
VL: B11 VL

molecular target: T1, CHO-hu α11 (Homo sapiens, UniProt Q9UKX5); assay: FACS antibody binding to CHO-K1 cells expressing human α11; conditions: Table 13, 79E3E3 variants
T1 construct: expressed in transfected cells; host or cells: CHO-K1
Method: 200,000 cells (wild-type CHO-K1 cells or CHO-K1 cells expressing human α11) were incubated with each antibody at desired concentrations in FACS buffer for 30 min at 4° C. Then, the cells were washed with FACS buffer and incubated with secondary antibody at 1:100 dilution for 30 minutes at 4° C. Cells were then washed and fixed with 1% PF A in PBS for 20 minutes at room temperature; washed again and read on a cytometer in FACS buffer.

T1 sequence (Q9UKX5 23-1188): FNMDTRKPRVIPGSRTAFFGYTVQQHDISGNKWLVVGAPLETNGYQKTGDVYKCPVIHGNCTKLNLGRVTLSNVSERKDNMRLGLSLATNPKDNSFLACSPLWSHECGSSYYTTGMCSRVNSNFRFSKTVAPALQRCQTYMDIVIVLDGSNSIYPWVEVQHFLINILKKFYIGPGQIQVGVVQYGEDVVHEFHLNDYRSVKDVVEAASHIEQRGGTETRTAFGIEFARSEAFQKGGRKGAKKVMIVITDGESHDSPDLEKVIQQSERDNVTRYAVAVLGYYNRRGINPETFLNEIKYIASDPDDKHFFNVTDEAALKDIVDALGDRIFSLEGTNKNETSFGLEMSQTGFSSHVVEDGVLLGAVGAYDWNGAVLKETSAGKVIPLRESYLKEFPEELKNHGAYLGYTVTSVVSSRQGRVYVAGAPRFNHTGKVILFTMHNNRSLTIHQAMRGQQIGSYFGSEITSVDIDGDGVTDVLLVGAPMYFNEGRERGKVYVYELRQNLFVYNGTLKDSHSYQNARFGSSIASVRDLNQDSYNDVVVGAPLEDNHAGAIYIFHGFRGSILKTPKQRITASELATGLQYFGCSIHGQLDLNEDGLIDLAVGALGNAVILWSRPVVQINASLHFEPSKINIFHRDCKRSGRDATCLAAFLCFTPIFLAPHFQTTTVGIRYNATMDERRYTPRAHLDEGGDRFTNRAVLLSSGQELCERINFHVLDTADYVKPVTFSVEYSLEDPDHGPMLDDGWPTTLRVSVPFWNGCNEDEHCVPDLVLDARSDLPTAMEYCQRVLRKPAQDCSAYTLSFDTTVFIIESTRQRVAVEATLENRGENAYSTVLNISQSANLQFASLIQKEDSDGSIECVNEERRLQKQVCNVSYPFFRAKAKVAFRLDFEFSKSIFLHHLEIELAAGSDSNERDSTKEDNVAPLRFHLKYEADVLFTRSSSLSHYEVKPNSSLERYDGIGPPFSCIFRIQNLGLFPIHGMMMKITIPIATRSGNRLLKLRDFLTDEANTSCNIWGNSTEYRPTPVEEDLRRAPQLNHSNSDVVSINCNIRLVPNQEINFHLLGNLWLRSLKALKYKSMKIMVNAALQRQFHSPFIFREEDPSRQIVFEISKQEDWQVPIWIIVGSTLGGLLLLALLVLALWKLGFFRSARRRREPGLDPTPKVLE
T1 sequence (P05556 21-798 partner): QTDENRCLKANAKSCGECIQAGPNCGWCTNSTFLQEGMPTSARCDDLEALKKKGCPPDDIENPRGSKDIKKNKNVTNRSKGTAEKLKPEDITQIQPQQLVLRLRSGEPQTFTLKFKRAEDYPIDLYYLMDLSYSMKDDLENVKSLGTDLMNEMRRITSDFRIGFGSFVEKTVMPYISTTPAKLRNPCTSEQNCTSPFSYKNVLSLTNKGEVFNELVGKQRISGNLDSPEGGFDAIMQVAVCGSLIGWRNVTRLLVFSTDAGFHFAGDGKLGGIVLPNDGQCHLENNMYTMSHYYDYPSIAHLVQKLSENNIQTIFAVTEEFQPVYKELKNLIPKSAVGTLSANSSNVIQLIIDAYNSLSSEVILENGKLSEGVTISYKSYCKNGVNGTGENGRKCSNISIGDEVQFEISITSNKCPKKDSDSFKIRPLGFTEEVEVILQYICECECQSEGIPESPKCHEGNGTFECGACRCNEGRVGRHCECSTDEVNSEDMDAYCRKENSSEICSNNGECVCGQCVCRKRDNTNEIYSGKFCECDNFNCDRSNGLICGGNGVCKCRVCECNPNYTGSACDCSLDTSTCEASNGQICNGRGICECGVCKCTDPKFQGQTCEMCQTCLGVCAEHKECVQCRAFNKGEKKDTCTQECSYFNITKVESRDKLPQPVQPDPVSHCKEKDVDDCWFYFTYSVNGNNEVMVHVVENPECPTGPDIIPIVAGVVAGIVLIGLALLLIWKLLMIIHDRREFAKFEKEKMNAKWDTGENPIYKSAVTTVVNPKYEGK

| EC50 [nM] | Molecule |
| --- | --- |
| 5.13 | B1 |
| 4.63 | B2 |
| 2.5 | B3 |
| 2.12 | B4 |
| 1.98 | B5 |
| 2.49 | B6 |
| 2.07 | B7 |
| 4.6 | B8 |
| 1.92 | B9 |
| 3.49 | B10 |

molecular target: T1, CHO-hu α11; assay: Cell adhesion inhibition on type I collagen (xCelligence); format: cell-based; conditions: Table 12, 16E10 variants, FIG. 5B; read-out: CHO-α11 Adhesion Inhibition IC50
Method: 0.6×10^6 cells/mL were incubated with each antibody at a range of concentrations for 20 minutes at 37° C. E-Plate VIEW 96 PET plate coated with 100 ng/ml type I collagen or PBS overnight at room temperature was blocked in 3% BSA for 1 hour at room temperature. After washing the plate with PBS, cell and antibody mixture was added to the wells and the plate was places into an xCelligence machine. Cell adhesion was recorded over 6 hours. The time point of maximum cell adhesion was used for comparison relative to control.

| IC50 [nM] | Molecule |
| --- | --- |
| 0.5 | B11 |
| 0.5 | B12 |
| 0.5 | B13 |
| 0.7 | B14 |
| 0.5 | B15 |
| 0.5 | B16 |
| 0.4 | B17 |
| 0.7 | B18 |
| 0.5 | B19 |
